Experimental data as given in patent US20250026849A1 (ARCELLX, published 2025).
Positions count from the first letter of the chain named.

T1: CD123 (Homo sapiens (Human), UniProt P26951 19-305, limits assumed)
T1 construct: also called CD123-Signal
T1 sequence: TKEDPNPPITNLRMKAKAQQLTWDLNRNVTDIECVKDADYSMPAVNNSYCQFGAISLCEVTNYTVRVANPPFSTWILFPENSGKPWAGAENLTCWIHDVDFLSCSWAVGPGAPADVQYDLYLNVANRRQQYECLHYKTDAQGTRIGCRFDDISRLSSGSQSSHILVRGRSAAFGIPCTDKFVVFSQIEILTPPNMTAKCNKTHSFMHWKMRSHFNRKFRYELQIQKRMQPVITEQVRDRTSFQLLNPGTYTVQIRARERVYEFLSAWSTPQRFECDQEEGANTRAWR

B1: D domain SEQ ID NO: 733 (designed binder)
chain: MGSWNEFYDRLSAIYFRLQALGGSEAELAAFEKEIAAFESELQAYKGKGNPEVEHLRWYAADIRMILQAYRHN
B2: D domain SEQ ID NO: 736 (designed binder)
chain: B1 chain with N5V, S12H, Q19L, H55D, M65L, I66V
B3: D domain SEQ ID NO: 732 (designed binder)
chain: B1 chain with N5Y, F16A, H55D, M65Y, I66M
B4: D domain SEQ ID NO: 734 (designed binder)
chain: B1 chain with S24F
B5: D domain SEQ ID NO: 731 (designed binder)
chain: B1 chain with N5Y, D9N, F16A, H55D, M65Y, I66M
B6: D domain SEQ ID NO: 737 (designed binder)
chain: B1 chain with N5K, Y8D, D9N, S12Y, Y15E, F16D, Q19R
B7: D domain SEQ ID NO: 735 (designed binder)
chain: B1 chain with N5E, S12G, Y15F, F16A, Q19H, H55D
B8: D domain SEQ ID NO: 763 (designed binder)
chain: MGSWWEFEDRLMAIYDRLYALGGSEAELAAFEKEIAAFESELQAYKGKGNPEVEYLRAEAALIRETLQAYRHN
B9: D domain SEQ ID NO: 730 (designed binder)
chain: MGSWVEFWHRLDAIKARLNALGGSEAELAAFEKEIAAFESELQAYKGKGNPEVEDLRWYAADFRLILQAYRHN
B10: D domain SEQ ID NO: 710 (designed binder)
chain: MGSWGEFWARLEAIWIRLDALGGSEAELAAFEKEIAAFESELQAYKGKGNPEVEWLREEAADIRRSLQAYRHN
B11: D domain SEQ ID NO: 743 (designed binder)
chain: MGSWFEFEDRLDAIWDRLWALGGSEAELAAFEKEIAAFESELQAYKGKGNPEVEFLRMDAAMIRYILQAYRHN
B12: D domain SEQ ID NO: 764 (designed binder)
chain: B8 chain with W5F, M12Y, Y15E, A58W, E59G, L62T, E65D, T66E
B13: D domain SEQ ID NO: 769 (designed binder)
chain: B11 chain with E8V, D12E, W15E, D16M, W19F, F55L, M58W, D59R, I66D
B14: D domain SEQ ID NO: 724 (designed binder)
chain: B11 chain with F5Y, W15Q, D16W, M58E, D59S, M62N, Y65Q, I66H
B15: D domain SEQ ID NO: 771 (designed binder)
chain: B11 chain with D9I, D12E, W15E, W19F, M58D, D59E, M62E, Y65Q, I66V
B16: D domain SEQ ID NO: 773 (designed binder)
chain: B8 chain with W5I, M12E, Y15E, Y19F, Y55W, A58Q, L62E, E65L, T66M
B17: D domain SEQ ID NO: 759 (designed binder)
chain: B11 chain with F5Y, D9W, W15Y, W19G, F55W, M58E, M62E, Y65A, I66L
B18: D domain SEQ ID NO: 761 (designed binder)
chain: MGSWYEFEERLEAIEDRLWALGGSEAELAAFEKEIAAFESELQAYKGKGNPEVEWLREQAAFIRTMLQAYRHN
B19: D domain SEQ ID NO: 752 (designed binder)
chain: B8 chain with E8H, M12E, Y15E, Y19W, A58I, L62D, E65R, T66Q
B20: D domain SEQ ID NO: 748 (designed binder)
chain: B11 chain with F5W, D9H, D12F, W15E, M58D, D59Y, M62E, Y65D, I66Y
B21: D domain SEQ ID NO: 766 (designed binder)
chain: B8 chain with W5F, E8W, M12D, Y15E, Y55E, A58D, L62W, E65G
B22: D domain SEQ ID NO: 751 (designed binder)
chain: B18 chain with E8Y, E9N, E12D, W55Y, E58Q, Q59E, F62D, T65G, M66Q
B23: D domain SEQ ID NO: 757 (designed binder)
chain: B18 chain with E9N, E12G, E15G, E58D, Q59E, F62Y, T65A, M66V
B24: D domain SEQ ID NO: 765 (designed binder)
chain: B10 chain with G5I, A9D, W15E, I16D, D19W, W55E, E58D, D62W, R65D
B25: D domain SEQ ID NO: 750 (designed binder)
chain: B8 chain with W5Y, D9W, Y15E, Y19W, A58H, L62E, E65D, T66V
B26: D domain SEQ ID NO: 767 (designed binder)
chain: B8 chain with W5E, E8T, M12W, Y15E, Y55W, A58D, L62F, E65K, T66S
B27: D domain SEQ ID NO: 762 (designed binder)
chain: B8 chain with W5F, D9W, M12E, Y15F, Y55V, L62E, E65L, T66R
B28: D domain SEQ ID NO: 744 (designed binder)
chain: B11 chain with F5E, D12W, W15E, F55I, M58Y, M62Y, Y65E
B29: D domain SEQ ID NO: 758 (designed binder)
chain: B18 chain with E9H, E12D, E15Y, Q59E, F62W, T65L, M66W
B30: D domain SEQ ID NO: 749 (designed binder)
chain: B8 chain with W5Y, E8D, D9S, Y15E, Y19W, A58Q, L62E, E65M, T66I
B31: D domain SEQ ID NO: 746 (designed binder)
chain: B11 chain with F5Y, E8W, D12E, W15E, M58Y, D59S, M62E, I66Q
B32: D domain SEQ ID NO: 755 (designed binder)
chain: B18 chain with E9N, D16E, W55M, Q59E, T65D, M66W
B33: D domain SEQ ID NO: 772 (designed binder)
chain: B18 chain with E8Y, E9Q, W19F, E58D, Q59E, F62E, T65V, M66V
B34: D domain SEQ ID NO: 768 (designed binder)
chain: B18 chain with Y5V, E8V, E9D, W19F, W55F, E58D, F62Y, T65F
B35: D domain SEQ ID NO: 770 (designed binder)
chain: B18 chain with Y5W, E9M, W19F, W55S, E58W, Q59E, T65D, M66I
B36: D domain SEQ ID NO: 760 (designed binder)
chain: B18 chain with Y5V, E9N, D16N, Q59D, F62Q, T65M
B37: D domain SEQ ID NO: 756 (designed binder)
chain: B18 chain with E9Y, W55Y, Q59E, F62W, T65V, M66W
B38: D domain SEQ ID NO: 747 (designed binder)
chain: B18 chain with Y5V, E9S, E12A, D16H, W55E, Q59Y, F62E, T65D, M66W
B39: D domain SEQ ID NO: 753 (designed binder)
chain: B10 chain with G5Y, A9D, W15E, I16E, D19W, W55Y, E58L, S66I
B40: D domain SEQ ID NO: 754 (designed binder)
chain: B8 chain with W5Y, D9E, M12W, Y15E, D16E, A58Y, L62W, E65D, T66F
B41: D domain SEQ ID NO: 725 (designed binder)
chain: MGSWSEFEYRLFAIENRLDALGGSEAELAAFEKEIAAFESELQAYKGKGNPEVEFLREEAAMIRQLLQAYRHN
B42: HER2-binding D domain SEQ ID NO: 814 (designed binder)
chain: MGSWKTFKIELAGIKLELEALGGSEAELAGFENAIAQFESSLQYYKGKGNPEVEALRKEAAAIRDELQAYRHN
notes: also called eb04
B43: HER2-binding D domain SEQ ID NO: 811 (designed binder)
chain: MGSWWGFKVNLAWIKWKLEALGGSEAELAYFELWIANFEHSLQEYKGKGNPEVEALRKEAAAIRDELQAYRHN
B44: HER2-binding D domain SEQ ID NO: 815 (designed binder)
chain: MGSWWEFKVRLSAIQYRLYALGGSEAELAAFEKEIAAFESELQAYKGKGNPEVEALREQAALIRTILQAYRHN
B45: HER2-binding D domain SEQ ID NO: 816 (designed binder)
chain: B44 chain with K8H, V9I, S12H, Q15N, Y19A, Q59L, L62K, T65G, I66D
B46: HER2-binding D domain SEQ ID NO: 817 (designed binder)
chain: B44 chain with K8Q, S12R, Y19N, A55Y, E58G, Q59L, L62Q, T65F, I66D
B47: HER2-binding D domain SEQ ID NO: 818 (designed binder)
chain: B44 chain with V9I, S12Y, Q15E, Y19N, E58A, Q59K, L62Q, T65Y, I66N
B48: HER2-binding D domain SEQ ID NO: 819 (designed binder)
chain: MGSWFEFNIRLHAIEYRLKALGGSEAELAAFEKEIAAFESELQAYKGKGNPEVEELRNYAASIRKLLQAYRHN
B49: HER2-binding D domain SEQ ID NO: 813 (designed binder)
chain: MGSWLVFKDELAGIKNYLEALGGSEAELATFEQDIAWFEQWLQNYKGKGNPEVEALRKEAAAIRDELQAYRHN
B50: HER2-binding D domain SEQ ID NO: 810 (designed binder)
chain: MGSWHEFLRRLLAIEMRLYALGGSEAELAAFEKEIAAFESELQAYKGKGNPEVEHLRVRAASIRQMLQAYRHN
notes: also called eb05
B51: HER2-binding D domain SEQ ID NO: 812 (designed binder)
chain: MGSWVNFKTHLARIKVHLEALGGSEAELALFEHDIANFEQVLQQYKGKGNPEVEALRKEAAAIRDELQAYRHN
B52: HER2-binding D domain SEQ ID NO: 809 (designed binder)
chain: B11 chain with F5Y, E8R, D9W, D12H, D16L, W19G, F55W, M58Q, M62Q
notes: also called eb08

These binders were tested against T1, CD123 (assay: ELISA, format not described).
Set-up: unit not given here

Binder | ELISA_avg
B1 | 10.6
B2 | 4.8
B3 | 5.3
B4 | 9
B5 | 10.6
B6 | 3.9
B7 | 3.9
B8 | 15.3
B9 | 3.5
B10 | 15
B11 | 5.1
B12 | 4.7
B13 | 7.1
B14 | 6.3
B15 | 3
B16 | 21.8
B17 | 6
B18 | 6
B19 | 6.4
B20 | 7.6
B21 | 4.9

Binder | ELISA_avg
B22 | 11.3
B23 | 4.8
B24 | 4.5
B25 | 3.4
B26 | 8.9
B27 | 6.9
B28 | 4.1
B29 | 6.3
B30 | 3.2
B31 | 4.2
B32 | 6.1
B33 | 3
B34 | 4.9
B35 | 4
B36 | 6.2
B37 | 6.2
B38 | 3.7
B39 | 4.6
B40 | 5.4
B41 | 3.2

Each binder was assayed against T2, HER2 (human, UniProt P04626 23-652) (assay: ELISA, format not described).
T2 construct: The ELISA is not described; also called ERBB2; CD340
Set-up: unit not given here

Binder | ELISA_avg
B42 | 4.95
B43 | 8.69
B44 | 5.17
B45 | 11.9
B46 | 14.4
B47 | 4.49
B48 | 7.86
B49 | 3.28
B50 | 8.15
B51 | 7.91
B52 | 7.18
